Two molecules from patent US20250011379A1 (VERTEX PHARMACEUTICALS, published 2025) can be followed below.

The experiment deals with soluble human C3b (human, UniProt P01024 23-1663, limits assumed). Briefly: cell-based or functional assay.
Chain of soluble human C3b (P01024 23-1663 limits assumed): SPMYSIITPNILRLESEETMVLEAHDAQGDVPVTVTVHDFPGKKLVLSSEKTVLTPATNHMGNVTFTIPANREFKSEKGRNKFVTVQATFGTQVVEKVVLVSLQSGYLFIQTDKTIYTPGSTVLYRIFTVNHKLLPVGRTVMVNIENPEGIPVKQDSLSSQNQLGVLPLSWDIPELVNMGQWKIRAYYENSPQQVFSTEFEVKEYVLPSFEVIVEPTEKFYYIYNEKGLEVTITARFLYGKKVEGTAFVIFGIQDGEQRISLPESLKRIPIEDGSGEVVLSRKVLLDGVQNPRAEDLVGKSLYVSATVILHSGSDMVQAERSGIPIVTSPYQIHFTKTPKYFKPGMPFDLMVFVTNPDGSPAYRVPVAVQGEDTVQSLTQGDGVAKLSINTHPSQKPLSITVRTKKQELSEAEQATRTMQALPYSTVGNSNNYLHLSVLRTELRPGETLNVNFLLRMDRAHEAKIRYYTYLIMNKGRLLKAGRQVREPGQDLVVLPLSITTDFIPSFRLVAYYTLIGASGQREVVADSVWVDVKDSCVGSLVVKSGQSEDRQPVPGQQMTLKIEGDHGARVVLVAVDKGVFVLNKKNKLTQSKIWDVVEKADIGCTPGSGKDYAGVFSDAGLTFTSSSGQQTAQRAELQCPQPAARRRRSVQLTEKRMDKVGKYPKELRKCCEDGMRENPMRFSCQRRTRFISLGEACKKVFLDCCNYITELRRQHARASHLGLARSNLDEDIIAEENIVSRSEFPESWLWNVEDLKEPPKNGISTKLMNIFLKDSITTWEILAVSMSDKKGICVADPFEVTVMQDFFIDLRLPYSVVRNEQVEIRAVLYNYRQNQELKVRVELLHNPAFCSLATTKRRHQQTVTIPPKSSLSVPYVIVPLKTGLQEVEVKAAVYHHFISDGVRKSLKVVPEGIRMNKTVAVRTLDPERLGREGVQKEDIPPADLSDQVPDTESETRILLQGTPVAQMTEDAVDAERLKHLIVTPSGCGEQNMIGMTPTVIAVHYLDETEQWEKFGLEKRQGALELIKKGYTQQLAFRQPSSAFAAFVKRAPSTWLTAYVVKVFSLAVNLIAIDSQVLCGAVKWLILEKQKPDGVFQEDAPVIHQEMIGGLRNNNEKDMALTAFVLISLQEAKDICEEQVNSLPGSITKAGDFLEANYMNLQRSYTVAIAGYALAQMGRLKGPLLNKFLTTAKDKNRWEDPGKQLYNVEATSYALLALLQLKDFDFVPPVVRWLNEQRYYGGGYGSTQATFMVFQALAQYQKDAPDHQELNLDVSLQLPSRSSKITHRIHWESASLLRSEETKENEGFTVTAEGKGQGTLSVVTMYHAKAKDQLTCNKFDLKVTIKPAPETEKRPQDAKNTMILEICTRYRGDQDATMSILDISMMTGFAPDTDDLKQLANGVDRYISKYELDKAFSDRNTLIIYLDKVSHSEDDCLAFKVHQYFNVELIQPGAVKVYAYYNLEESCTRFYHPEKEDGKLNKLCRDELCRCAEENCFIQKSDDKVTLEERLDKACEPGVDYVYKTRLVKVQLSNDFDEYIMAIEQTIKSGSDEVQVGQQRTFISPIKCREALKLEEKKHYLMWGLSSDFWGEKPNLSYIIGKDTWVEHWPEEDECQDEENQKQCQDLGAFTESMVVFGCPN

B1: Const. No. 94: hCFI-PD (wild type plasma-derived human CFI) (enzyme)
chain: KVTYTSQEDLVEKKCLAKKYTHLSCDKVFCQPWQRCIEGTCVCKLPYQCPKNGTAVCATNRRSFPTYCQQKSLECLHPGTKFLNNGTCTAEGKFSVSLKHGNTDSEGIVEVKLVDQDKTMFICKSSWSMREANVACLDLGFQQGADTQRRFKLSDLSINSTECLHVHCRGLETSLAECTFTKRRTMGYQDFADVVCYTQKADSPMDDFFQCVNGKYISQMKACDGINDCGDQSDELCCKACQGKGFHCKSGVCIPSQYQCNGEVDCITGEDEVGCAGFASVTQEETEILTADMDAERRRIKSLLPKLSCGVKNRMHIRRKRIVGGKRAQLGDLPWQVAIKDASGITCGGIYIGGCWILTAAHCLRASKTHRYQIWTTVVDWIHPDLKRIVIEYVDRIIFHENYNAGTYQNDIALIEMKKDGNKKDCELPRSIPACVPWSPYLFQPNDTCIVSGWGREKDNERVFSLQWGEVKLISNCSKFYGNRFYEKEMECAGTYDGSIDACKGDSGGPLVCMDANNVTYVWGVVSWGENCGKPEFPGVYTKVANYFDWISYHVGRPFISQYNV
Consider B1, for which the “iC3b EC50” value came out at 50.1 nM.

B2: Const. No. 96: hCFI (wt hCFI, no signal sequence, no HSA) (enzyme)
chain: KVTYTSQEDLVEKKCLAKKYTHLSCDKVFCQPWQRCIEGTCVCKLPYQCPKNGTAVCATNRRSFPTYCQQKSLECLHPGTKFLNNGTCTAEGKFSVSLKHGNTDSEGIVEVKLVDQDKTMFICKSSWSMREANVACLDLGFQQGADTQRRFKLSDLSINSTECLHVHCRGLETSLAECTFTKRRTMGYQDFADVVCYTQKADSPMDDFFQCVNGKYISQMKACDGINDCGDQSDELCCKACQGKGFHCKSGVCIPSQYQCNGEVDCITGEDEVGCAGFASVTQEETEILTADMDAERRRIKSLLPKLSCGVKNRMHIRRKRIVGGKRAQLGDLPWQVAIKDASGITCGGIYIGGCWILTAAHCLRASKTHRYQIWTTVVDWIHPDLKRIVIEYVDRIIFHENYNAGTYQNDIALIEMKKDGNKKDCELPRSIPACVPWSPYLFQPNDTCIVSGWGREKDNERVFSLQWGEVKLISNCSKFYGNRFYEKEMECAGTYDGSIDACKGDSGGPLVCMDANNVTYVWGVVSWGENCGKPEFPGVYTKVANYFDWISYHVGRPFISQYNV
Consider B2, for which the “iC3b EC50” value amounted to 62.4 nM.
